Positions of bridges follow the written chain, without caps; N, C: chain ends. Non-standard residues stand in square brackets, D forms with d. Residues, ends and D or L forms follow the SMILES beside them. *: point of attachment. NH(β-GlcNAc) = CC(=O)N[C@@H]1[C@@H](O)[C@H](O)[C@@H](CO)O[C@H]1N*; Dap = NC[C@H](N)C(=O)O

The values below come from patent publication US20130280259A1, “USE OF ANTIBODIES AGAINST NK1, NK2 AND/OR NK3 RECEPTORS IN CANCER TREATMENT” (SERVICIO ANDALUZ DE SALUD, priority 2010, published 2013).

For assay [1], the target named is NK2 receptor (human) (UniProt P21452). Briefly: cell-based or functional assay.
UniProt P21452, sequence (P21452 whole entry): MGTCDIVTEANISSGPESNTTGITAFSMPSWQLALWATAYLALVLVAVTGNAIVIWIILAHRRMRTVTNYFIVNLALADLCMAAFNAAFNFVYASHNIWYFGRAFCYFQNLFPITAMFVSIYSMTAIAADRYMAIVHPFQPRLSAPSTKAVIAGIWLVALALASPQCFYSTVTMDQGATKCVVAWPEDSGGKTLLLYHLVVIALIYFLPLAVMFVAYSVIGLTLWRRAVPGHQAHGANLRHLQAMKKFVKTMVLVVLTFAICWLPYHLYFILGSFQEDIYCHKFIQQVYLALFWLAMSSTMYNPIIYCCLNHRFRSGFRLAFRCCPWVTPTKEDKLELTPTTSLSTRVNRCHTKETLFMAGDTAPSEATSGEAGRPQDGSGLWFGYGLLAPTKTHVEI
Assay [2] deals with human breast cancer cells. To be noted: Singh D et al., 2000; Bigioni M. et al., 2005; cited from earlier work.
The target of assay [3] is NK1 receptor (human) (UniProt P25103). The assay is described as follows: cell-based or functional assay.
UniProt P25103, sequence (P25103 whole entry): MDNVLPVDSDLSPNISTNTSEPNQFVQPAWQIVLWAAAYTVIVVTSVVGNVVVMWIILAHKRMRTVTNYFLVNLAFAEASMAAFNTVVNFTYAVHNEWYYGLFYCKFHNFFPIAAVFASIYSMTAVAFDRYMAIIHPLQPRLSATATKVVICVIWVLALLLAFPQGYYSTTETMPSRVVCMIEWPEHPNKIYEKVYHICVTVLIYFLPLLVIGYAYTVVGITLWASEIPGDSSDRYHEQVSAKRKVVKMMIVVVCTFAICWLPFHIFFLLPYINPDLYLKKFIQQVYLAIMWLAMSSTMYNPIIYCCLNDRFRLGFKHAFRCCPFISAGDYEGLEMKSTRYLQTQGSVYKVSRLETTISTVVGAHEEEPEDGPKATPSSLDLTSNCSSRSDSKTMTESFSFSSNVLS
Assay [4] has as its target NK3 receptor (human) (UniProt P29371). Briefly: cell-based or functional assay.
UniProt P29371, sequence (P29371 whole entry): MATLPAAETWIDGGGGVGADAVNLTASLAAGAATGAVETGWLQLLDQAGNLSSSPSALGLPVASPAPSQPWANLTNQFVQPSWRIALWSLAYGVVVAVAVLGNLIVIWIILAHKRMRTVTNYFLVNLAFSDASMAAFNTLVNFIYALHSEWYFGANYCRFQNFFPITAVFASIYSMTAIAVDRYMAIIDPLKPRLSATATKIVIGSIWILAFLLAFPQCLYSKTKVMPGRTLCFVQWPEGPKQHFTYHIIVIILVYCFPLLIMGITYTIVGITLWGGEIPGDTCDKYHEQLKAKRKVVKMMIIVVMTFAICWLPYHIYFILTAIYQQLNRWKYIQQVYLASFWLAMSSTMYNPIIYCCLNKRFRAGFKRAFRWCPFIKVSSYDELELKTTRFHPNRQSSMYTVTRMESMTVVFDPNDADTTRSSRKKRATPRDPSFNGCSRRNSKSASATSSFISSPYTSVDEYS
Assay [5] deals with NK1, NK2 and NK3 receptors. Briefly: cell-based or functional assay.

As for “anti-NK2 antibody (Sigma-Aldrich, product number HPA012084)”, in assay [1], the % of fibroblast cells with expression for MMP-3; anti-NK2 (1/100) and Substance P (1 µM) is 0%; the % of fibroblast cells with expression for MMP-7; anti-NK2 (1/100) and Substance P (1 µM) worked out at 0%; the % of fibroblast cells with expression for MMP-9; anti-NK2 (1/100) and Substance P (1 µM) was determined as 0%; the % of fibroblast cells with expression for MMP-11; anti-NK2 (1/100) and Substance P (1 µM) worked out at 0%. In assay [1], the % of fibroblast cells with expression for MMP-13; anti-NK2 (1/100) and Substance P (1 µM) stood at 0%; the % of fibroblast cells with expression for MMP-14; anti-NK2 (1/100) and Substance P (1 µM) turned out to be 0%; the % of fibroblast cells with expression for SPARC; anti-NK2 (1/100) and Substance P (1 µM) stood at 0%; the % of fibroblast cells with expression for TGF-alpha; anti-NK2 (1/100) and Substance P (1 µM) worked out at 0%. Moreover, in assay [1], the % of fibroblast cells with expression for TGF-beta 1; anti-NK2 (1/100) and Substance P (1 µM) is 0%; the % of fibroblast cells with expression for TGF-beta 2; anti-NK2 (1/100) and Substance P (1 µM) came to 0%; the % of fibroblast cells with expression for TGF-beta 3; anti-NK2 (1/100) and Substance P (1 µM) stood at 0%; the % of mononuclear cells with expression for NF-kB; anti-NK2 (1/100) and Substance P (1 µM) turned out to be 0%. In assay [1], this molecule displayed a % of mononuclear cells with expression for TGF-beta; anti-NK2 (1/100) and Substance P (1 µM) of 0%; a % of polymorphonuclear cells with expression for NF-kB; anti-NK2 (1/100) of 0%; a % of polymorphonuclear cells with expression for TGF-beta; anti-NK2 (1/100) of 0%.

Turning to `CC(=O)NC1(c2ccccc2)CCN(CC[C@H](CN(C)C(=O)c2ccccc2)c2ccc(Cl)c(Cl)c2)CC1` [SR 48968], the Blocking cell proliferation result in assay [2] was “efficacy in blocking cell proliferation”.

`CC(=O)N[C@@H]1[C@@H](O)[C@H](O)[C@@H](CO)O[C@H]1NC(=O)C[C@@H]1NC(=O)[C@H](CC(C)C)NC(=O)[C@@H]2CNC(=O)C[C@H](NC1=O)C(=O)N[C@@H](Cc1c[nH]c3ccccc13)C(=O)N[C@@H](Cc1ccccc1)C(=O)N2` [MEN 11420, nepadutant] (cyclo(D(NH(β-GlcNAc))DWF[Dap]L); lactam 2-5): the Blocking cell proliferation result in assay [2] is on record as “efficacy in blocking cell proliferation”.

In assay [3], “anti-NK1 antibody (Sigma-Aldrich, product number S8305)” gave a % of fibroblast cells with expression for MMP-3; anti-NK1 (1/100) and Substance P (1 µM) of 0%; a % of fibroblast cells with expression for MMP-7; anti-NK1 (1/100) and Substance P (1 µM) of 0%; a % of fibroblast cells with expression for MMP-9; anti-NK1 (1/100) and Substance P (1 µM) of 0%; a % of fibroblast cells with expression for MMP-11; anti-NK1 (1/100) and Substance P (1 µM) of 0%. For the same molecule, in assay [3], the % of fibroblast cells with expression for MMP-13; anti-NK1 (1/100) and Substance P (1 µM) worked out at 0%; the % of fibroblast cells with expression for MMP-14; anti-NK1 (1/100) and Substance P (1 µM) turned out to be 0%; the % of fibroblast cells with expression for SPARC; anti-NK1 (1/100) and Substance P (1 µM) was found to be 0%; the % of fibroblast cells with expression for TGF-alpha; anti-NK1 (1/100) and Substance P (1 µM) was 0%. For the same molecule, in assay [3], the % of fibroblast cells with expression for TGF-beta 1; anti-NK1 (1/100) and Substance P (1 µM) was 0%; the % of fibroblast cells with expression for TGF-beta 2; anti-NK1 (1/100) and Substance P (1 µM) worked out at 0%; the % of fibroblast cells with expression for TGF-beta 3; anti-NK1 (1/100) and Substance P (1 µM) is 0%; the % of mononuclear cells with expression for NF-kB; anti-NK1 (1/100) and Substance P (1 µM) amounted to 0%. For the same molecule, in assay [3], the % of mononuclear cells with expression for TGF-beta; anti-NK1 (1/100) and Substance P (1 µM) was 0%; the % of polymorphonuclear cells with expression for NF-kB; anti-NK1 (1/100) was determined as 0%; the % of polymorphonuclear cells with expression for TGF-beta; anti-NK1 (1/100) worked out at 0%.

Regarding “anti-NK3 antibody (Sigma-Aldrich, product number HPA009418)”, in assay [4], the % of fibroblast cells with expression for MMP-3; anti-NK3 (1/100) and Substance P (1 µM) came to 0%; the % of fibroblast cells with expression for MMP-7; anti-NK3 (1/100) and Substance P (1 µM) came out at 0%; the % of fibroblast cells with expression for MMP-9; anti-NK3 (1/100) and Substance P (1 µM) was determined as 0%; the % of fibroblast cells with expression for MMP-11; anti-NK3 (1/100) and Substance P (1 µM) was 0%. In assay [4], this molecule returned a % of fibroblast cells with expression for MMP-13; anti-NK3 (1/100) and Substance P (1 µM) of 0%; a % of fibroblast cells with expression for MMP-14; anti-NK3 (1/100) and Substance P (1 µM) of 0%; a % of fibroblast cells with expression for SPARC; anti-NK3 (1/100) and Substance P (1 µM) of 0%; a % of fibroblast cells with expression for TGF-alpha; anti-NK3 (1/100) and Substance P (1 µM) of 0%. In assay [4], this molecule came in with a % of fibroblast cells with expression for TGF-beta 1; anti-NK3 (1/100) and Substance P (1 µM) of 0%; a % of fibroblast cells with expression for TGF-beta 2; anti-NK3 (1/100) and Substance P (1 µM) of 0%; a % of fibroblast cells with expression for TGF-beta 3; anti-NK3 (1/100) and Substance P (1 µM) of 0%; a % of mononuclear cells with expression for NF-kB; anti-NK3 (1/100) and Substance P (1 µM) of 0%. Further, in assay [4], the % of mononuclear cells with expression for TGF-beta; anti-NK3 (1/100) and Substance P (1 µM) amounted to 0%; the % of polymorphonuclear cells with expression for NF-kB; anti-NK3 (1/100) is 0%; the % of polymorphonuclear cells with expression for TGF-beta; anti-NK3 (1/100) was 0%.

`Cc1ccc(CC(=O)N(C)[C@H](Cc2ccc3ccccc3c2)C(=O)N[C@@H]2CCCC[C@@H]2NC(=O)c2c[nH]c3ccccc23)cc1` [MEN 11467]: the Blocking cell proliferation result in assay [2] is “efficacy in blocking cell proliferation”.

B1: Substance P (product no. S6883; Sigma-Aldrich) (peptide, UniProt P20366 58-68, looked up)
peptide: RPKPQQFFGLM
As for B1, in assay [5], the % of fibroblast cells with expression for MMP-3; Substance P (1 µM) was 33.9%, the % of fibroblast cells with expression for MMP-7; Substance P (1 µM) is 46.2%, the % of fibroblast cells with expression for MMP-9; Substance P (1 µM) turned out to be 35.5% and the % of fibroblast cells with expression for MMP-11; Substance P (1 µM) was 7.8%. In assay [5], this molecule registered a % of fibroblast cells with expression for MMP-13; Substance P (1 µM) of 17.1%, a % of fibroblast cells with expression for MMP-14; Substance P (1 µM) of 47.3%, a % of fibroblast cells with expression for SPARC; Substance P (1 µM) of 16% and a % of fibroblast cells with expression for TGF-alpha; Substance P (1 µM) of 16.5%. Also, in assay [5], the % of fibroblast cells with expression for TGF-beta 1; Substance P (1 µM) is 18.4%, the % of fibroblast cells with expression for TGF-beta 2; Substance P (1 µM) turned out to be 24.6%, the % of fibroblast cells with expression for TGF-beta 3; Substance P (1 µM) is 23.1% and the % of mononuclear cells with expression for NF-kB; Substance P (1 µM) is 25.7%. In assay [5], this molecule registered a % of mononuclear cells with expression for TGF-beta; Substance P (1 µM) of 16.4%, a % of polymorphonuclear cells with expression for NF-kB; Substance P (1 µM) of 17.5% and a % of polymorphonuclear cells with expression for TGF-beta; Substance P (1 µM) of 36.8%.
